Laboratory results from the supplement of paper PMC10724198.
± gives the standard deviation of the averaged measurements.

System: Saccharomyces cerevisiae
Assay: protein stability index of tFT-peptide fusion (C-terminal peptide) (PSI (0-1 scale)); higher = more stable (slower turnover)
Details: genetic background: wild type; temperature: 30 C
Description: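 Multiplexed protein stability (MPS) profiling in S. cerevisiae. Random 12-aa peptides (tFT-X12 library) are fused to the C-terminus of a sfGFP-mCherry tandem fluorescent timer, after mCherry and a GGGS linker. Cells are FACS-sorted into 8 mCherry/sfGFP bins and deep-sequenced. The protein stability index (PSI) is the read-weighted bin average, scaled from 0 (unstable) to 1 (stable). Only peptides with >10 reads are reported; cells were grown at 30 °C in SC-His with glucose.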
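Further: PSI is a weighted mean of sequencing reads over stability bins, variants kept only with over 10 reads, mCherry proximal and sfGFP distal, peptide attached via GGGS linker.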

| Sequence | protein stability index |
| --- | --- |
| IDPVVFCEYTHA | 0.688 ± 0.011 |
| IDVIIESVFSLF | 0.619 ± 0.09 |
| IEFPQGRKTTQS | 0.629 ± 0.0082 |
| IENNIITRGTRV | 0.735 ± 0.027 |
| IERFKKMRGVGS | 0.801 ± 0.084 |
| IERKNYPQNRRQ | 0.62 ± 0.046 |
| IFGMSGYVSIIL | 0.671 ± 0.014 |
| IFNYGGANFIYC | 0.714 ± 0.028 |
| IFPPPLLPSLPT | 0.703 ± 0.086 |
| IFRTRISSSLWC | 0.685 ± 0.0083 |
| IFVTLGWARMRY | 0.647 ± 0.065 |
| IFWGFSFRGWGG | 0.684 ± 0.0086 |
| IGFCVRGYGTTG | 0.727 ± 0.1 |
| IGFPFRIYRFAF | 0.563 ± 0.04 |
| IGGGWIGRYVSR | 0.684 ± 0.033 |
| IGGWWCGALLGD | 0.79 ± 0.074 |
| IGHVVTWCFGRV | 0.6898 ± 0.0041 |
| IGLKKVVKIRKD | 0.614 ± 0.039 |
| IGTRHIKILGRY | 0.698 ± 0.047 |
| IGVRSTRFCAIR | 0.655 ± 0.0093 |
| IGVVKHGAAEKV | 0.711 ± 0.069 |
| IGWCPASFMVIG | 0.585 ± 0.049 |
| IHLSVYPLQPSC | 0.76 ± 0.04 |
| IHQVGCFHIPFG | 0.666 ± 0.0097 |
| IIQNNNQLKKRR | 0.671 ± 0.049 |

| Sequence | protein stability index |
| --- | --- |
| IIRKTKSKQEMI | 0.706 ± 0.039 |
| IIVPCGRWEGGG | 0.69 ± 0.017 |
| IIVWGGAGLWGV | 0.59 ± 0.0027 |
| IKGKNTGKERER | 0.6176 ± 0.00089 |
| IKKRDKAKKEYI | 0.672 ± 0.0077 |
| IKKSMKSLTRTE | 0.735 ± 0.015 |
| IKKYNEKRITKV | 0.66 ± 0.045 |
| IKLKVKIQKENG | 0.654 ± 0.021 |
| IKNEEKKLIESQ | 0.76 ± 0.073 |
| IKNEKKKKKNKK | 0.7 ± 0.035 |
| IKNSCAGCTRDV | 0.671 ± 0.035 |
| IKSKFILKTRPM | 0.691 ± 0.091 |
| ILCTVVKTDSKE | 0.702 ± 0.081 |
| ILGGRIRLVGRK | 0.708 ± 0.033 |
| ILLFLLPFSHRL | 0.658 ± 0.076 |
| ILLSHRLQVSSC | 0.564 ± 0.035 |
| ILPCSRYNILNV | 0.659 ± 0.0078 |
| ILSASSLFPFVS | 0.693 ± 0.053 |
| ILTCGARSSICD | 0.639 ± 0.011 |
| ILYNIEKQQSSV | 0.683 ± 0.032 |
| IMTNGADRERYR | 0.736 ± 0.034 |
| INARCNRTIVRP | 0.646 ± 0.021 |
| INEEIVDMKRLL | 0.697 ± 0.0095 |
| INKKKKEKKKVE | 0.731 ± 0.023 |
| INKWNKRDGLFQ | 0.66 ± 0.03 |

| Sequence | protein stability index |
| --- | --- |
| INPLAHCSISRS | 0.7086 ± 0.0066 |
| IPHHFSPPLPSP | 0.772 ± 0.082 |
| IPPLPSSIPRSF | 0.673 ± 0.022 |
| IPPLTKRPAPGG | 0.684 ± 0.099 |
| IPQTITLPHSNP | 0.694 ± 0.088 |
| IPSKHKPSRIPI | 0.665 ± 0.014 |
| IQARAVRRSAII | 0.627 ± 0.0012 |
| IQFKDKAVSETE | 0.658 ± 0.021 |
| IREFNLGTQIRY | 0.711 ± 0.035 |
| IRGCSGSDKNKS | 0.643 ± 0.047 |
| IRKEKREKKSSH | 0.702 ± 0.069 |
| IRKLDIIFLSES | 0.827 ± 0.063 |
| IRRPSVTAIRPS | 0.667 ± 0.08 |
| IRRRKRKRNQKP | 0.708 ± 0.032 |
| IRSLPYVGVFIE | 0.587 ± 0.036 |
| ISEINQKGKNRE | 0.675 ± 0.037 |
| ISFFLLYFPPSY | 0.59 ± 0.024 |
| ISKEIKKRLNRY | 0.63 ± 0.055 |
| ISLLIFSPTLFS | 0.687 ± 0.035 |
| ISLRAPVRPECV | 0.709 ± 0.031 |
| ISLVMLLKDAWR | 0.695 ± 0.019 |
| ISMPECDIVEEI | 0.707 ± 0.022 |
| ISPPAPTNLPTT | 0.696 ± 0.043 |
| ISSKREITGSVA | 0.694 ± 0.012 |
| ITALYVILTRRP | 0.6007 ± 0.0033 |

| Sequence | protein stability index |
| --- | --- |
| ITGLRNSRFNRP | 0.652 ± 0.0068 |
| ITHLFRSSIYSR | 0.683 ± 0.12 |
| ITNEQEMKRYDV | 0.667 ± 0.013 |
| ITRKKLEISVDK | 0.685 ± 0.04 |
| ITTKLRVTRLLR | 0.766 ± 0.13 |
| IVEERLFWKMWE | 0.659 ± 0.015 |
| IVFVLRPRRSRC | 0.65 ± 0.04 |
| IVNKRLKIRKKQ | 0.658 ± 0.045 |
| IVRENGKDVGVG | 0.506 ± 0.014 |
| IVRMLTCGVGWD | 0.581 ± 0.016 |
| IVSKESNVYIIK | 0.662 ± 0.053 |
| IVVLMEADLAGC | 0.583 ± 0.02 |
| IWLAFCTLRPVS | 0.591 ± 0.027 |
| IWLSCCPLAFWS | 0.6896 ± 0.0065 |
| IWRLLLPLPNPF | 0.688 ± 0.019 |
| IYRTYEAKPGHP | 0.69 ± 0.12 |
| IYRWSGTVGGER | 0.6971 ± 0.003 |
| IYVGAGCLGHTE | 0.717 ± 0.068 |
| KAGHEPRLTRKQ | 0.667 ± 0.022 |
| KAGVGAFLEPRS | 0.713 ± 0.064 |
| KAGVWLWVGGGG | 0.739 ± 0.015 |
| KCDLTREDVVHR | 0.657 ± 0.01 |
| KDDEQESESKNN | 0.667 ± 0.011 |
| KDEWVQSHTNQV | 0.671 ± 0.0083 |
| KDKEQKKIKKSI | 0.681 ± 0.13 |

| Sequence | protein stability index |
| --- | --- |
| KDKNPDARDDGG | 0.705 ± 0.04 |
| KDRKKYIMTKPS | 0.627 ± 0.051 |
| KDSSRHSPDPSR | 0.715 ± 0.086 |
| KEDKLLRSSEGF | 0.6886 ± 0.0029 |
| KEEGLKRAKGPQ | 0.642 ± 0.02 |
| KEELKKRRQEAK | 0.677 ± 0.012 |
| KEFFGGSTDFRV | 0.729 ± 0.18 |
| KEGKGRGDGGRE | 0.697 ± 0.018 |
| KEKGSRYKRALS | 0.679 ± 0.014 |
| KETQKKKQDKKK | 0.703 ± 0.0091 |
| KFARHVLIQSHV | 0.559 ± 0.04 |
| KFKREKKKINKR | 0.6938 ± 0.0023 |
| KFLISIWGGTRG | 0.6118 ± 0.0025 |
| KGANISDCLSIF | 0.616 ± 0.018 |
| KGDAQASSDLTL | 0.691 ± 0.014 |
| KGDWGGRGCGRH | 0.693 ± 0.021 |
| KGEKKNEEEERG | 0.68 ± 0.01 |
| KGETRLTSARLI | 0.706 ± 0.028 |
| KGETSYTGIAVG | 0.667 ± 0.085 |
| KGGGMWRCCVWR | 0.685 ± 0.0089 |
| KGGREARRERRD | 0.672 ± 0.036 |
| KGKTARDVLLLV | 0.58 ± 0.013 |
| KGQIVIDTKGGG | 0.609 ± 0.053 |
| KGSWTLGDGLVW | 0.644 ± 0.013 |
| KHPLAPLRRPVI | 0.68 ± 0.0078 |

| Sequence | protein stability index |
| --- | --- |
| KHYKVDAVNIRG | 0.686 ± 0.035 |
| KIDKKNKKKKRN | 0.728 ± 0.023 |
| KIDKKSKKKKEI | 0.684 ± 0.017 |
| KIDKNILTNKEN | 0.673 ± 0.056 |
| KIGYTISGFVIS | 0.707 ± 0.054 |
| KIIASVLYGVIG | 0.61 ± 0.037 |
| KIINKKKKRKKN | 0.665 ± 0.023 |
| KIKDKKNKQKKH | 0.709 ± 0.034 |
| KIKKLKKRNKSY | 0.612 ± 0.023 |
| KIKNKYKEKKKK | 0.67 ± 0.0079 |
| KIKQKEITEKNR | 0.638 ± 0.038 |
| KIRFGRCLRSSF | 0.746 ± 0.033 |
| KIRNLELNVQTN | 0.688 ± 0.075 |
| KITKKNRSWKTS | 0.623 ± 0.019 |
| KIYKKSKKKKEI | 0.688 ± 0.061 |
| KKDFTTKSKEYR | 0.7125 ± 0.0026 |
| KKDRRGGGPGGG | 0.691 ± 0.03 |
| KKEEIIIGGKKI | 0.663 ± 0.043 |
| KKEERTQKNEKK | 0.654 ± 0.011 |
| KKEKKKQKRNNN | 0.782 ± 0.013 |
| KKEKNQEKRKKE | 0.657 ± 0.021 |
